According to patent publication US20230312654A1:

What was measured:
[1] = molecular target: UFV180137 (influenza B virus B/Brisbane/60/08) (UniProt P22092)
[2] = molecular target: UFV180131 (influenza B virus B/Brisbane/60/08) (UniProt P22092)
[3] = molecular target: UFV180846 (influenza B virus B/Brisbane/60/08) (UniProt P22092)
[4] = molecular target: UFV180284 (influenza B virus B/Brisbane/60/08) (UniProt P22092)
[5] = molecular target: UFV180251 (influenza B virus B/Brisbane/60/08) (UniProt P22092)

Row | Substance | EC50 [1] | EC50 [2] | EC50 [3] | EC50 [4] | EC50 [5]
1 | monoclonal antibody CR9114 | < 2.6 nM | < 2.6 nM | < 4.6 nM | < 2.6 nM | < 2.6 nM
2 | monoclonal antibody CR8071 | – | – | < 4.6 nM | – | –
